Assay results from patent US20170130210A1.
Values joined by “and” are separate entries in the source; they are usually repeats but may differ in a detail not shown here. Identical values can stand only once.

Biological target: Pfk-I with the C-terminal degradation tag DAS+4, expressed from the pfkA locus of E. coli strain IB1863 (E. coli) (UniProt P0A796)
Experiment: cell-based or functional assay

Pfk-I with the C-terminal degradation tag DAS+4, expressed from the pfkA locus of E. coli strain IB1863 (E. coli), sequence (P0A796 1-320, tags or fused parts left off): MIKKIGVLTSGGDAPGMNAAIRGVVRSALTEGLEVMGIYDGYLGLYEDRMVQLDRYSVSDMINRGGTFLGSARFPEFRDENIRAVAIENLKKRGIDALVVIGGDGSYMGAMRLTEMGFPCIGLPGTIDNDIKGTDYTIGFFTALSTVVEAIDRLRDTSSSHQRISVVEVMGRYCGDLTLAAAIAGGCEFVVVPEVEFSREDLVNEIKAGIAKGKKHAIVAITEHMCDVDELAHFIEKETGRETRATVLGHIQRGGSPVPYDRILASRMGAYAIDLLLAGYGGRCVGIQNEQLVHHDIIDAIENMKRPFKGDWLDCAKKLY

SspB, native E. coli adaptor protein (from UniProt P0AFZ3 1-165)
Pfk activity in crude lysate of IB1863 after aTc induction of SspB, relative to wild-type (% of wild-type): 35 and 18
